For this data set, the system named is SNAPtide (FITC/DABCYL), List Biological Laboratories product #521.

The record followed here is patent publication US20130065259A1.

On to BoNT/A complex, for which the “Km, non-bead based assay (free BoNT/A), SNAPtide conversion” value is “typical Km=0.7 µM” and the “fold change of Km, immobilized against free enzyme” value was 3.2-fold lower.
